Like-named read-outs stand apart in the source and are kept apart here.
Legend:
[1] = target: ScVL1 capsid protein Cap, full size (680 amino acids) (ScVL1 virus of Saccharomyces cerevisiae)
[2] = target: ScVLa capsid protein Cap, full size (697 amino acids) (ScVLa virus of Saccharomyces cerevisiae)
[3] = target: T1, ScVL1 capsid protein Cap, full size (680 amino acids) (ScVL1 virus of Saccharomyces cerevisiae); test: cell-based or functional assay
T1 chain: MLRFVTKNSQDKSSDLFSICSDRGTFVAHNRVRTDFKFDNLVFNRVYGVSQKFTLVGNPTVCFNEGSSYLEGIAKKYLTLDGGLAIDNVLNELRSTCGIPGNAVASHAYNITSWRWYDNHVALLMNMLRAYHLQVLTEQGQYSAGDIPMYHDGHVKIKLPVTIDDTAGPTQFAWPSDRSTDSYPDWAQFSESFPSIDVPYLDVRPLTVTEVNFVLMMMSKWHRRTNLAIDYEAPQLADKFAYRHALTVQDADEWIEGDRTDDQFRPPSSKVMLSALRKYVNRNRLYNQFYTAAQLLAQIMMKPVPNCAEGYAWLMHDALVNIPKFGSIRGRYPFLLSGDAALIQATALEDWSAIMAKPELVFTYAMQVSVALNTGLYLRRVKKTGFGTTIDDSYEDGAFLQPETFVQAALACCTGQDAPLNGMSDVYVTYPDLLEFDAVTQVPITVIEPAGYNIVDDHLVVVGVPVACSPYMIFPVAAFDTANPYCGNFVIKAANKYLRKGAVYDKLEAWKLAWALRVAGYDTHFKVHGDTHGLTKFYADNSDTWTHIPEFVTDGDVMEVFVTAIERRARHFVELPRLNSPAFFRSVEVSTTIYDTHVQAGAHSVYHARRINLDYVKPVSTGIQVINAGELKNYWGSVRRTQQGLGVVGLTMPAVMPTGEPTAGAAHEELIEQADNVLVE

L1 Cap N-terminal fragment of pGL1d2 (aa 1-603)
Curing (%) of ScVL1 [1]: 100%

La Cap N-terminal fragment of pGLa1d3 (aa 1-443)
Curing (%) of ScVLa [2]: 100%

B1: L1 Cap N-terminal fragment of nonsense mutant pGL1m14 (Y485O, aa 1-484) (other)
chain: MLRFVTKNSQDKSSDLFSICSDRGTFVAHNRVRTDFKFDNLVFNRVYGVSQKFTLVGNPTVCFNEGSSYLEGIAKKYLTLDGGLAIDNVLNELRSTCGIPGNAVASHAYNITSWRWYDNHVALLMNMLRAYHLQVLTEQGQYSAGDIPMYHDGHVKIKLPVTIDDTAGPTQFAWPSDRSTDSYPDWAQFSESFPSIDVPYLDVRPLTVTEVNFVLMMMSKWHRRTNLAIDYEAPQLADKFAYRHALTVQDADEWIEGDRTDDQFRPPSSKVMLSALRKYVNRNRLYNQFYTAAQLLAQIMMKPVPNCAEGYAWLMHDALVNIPKFGSIRGRYPFLLSGDAALIQATALEDWSAIMAKPELVFTYAMQVSVALNTGLYLRRVKKTGFGTTIDDSYEDGAFLQPETFVQAALACCTGQDAPLNGMSDVYVTYPDLLEFDAVTQVPITVIEPAGYNIVDDHLVVVGVPVACSPYMIFPVAAFDTANP
Curing (%) of ScVL1 [3]: < 5%

MLRFVTKNS [L1 Cap N-terminal fragment of nonsense mutant pGL1m13 (Q10O, aa 1-9)]
Curing (%) of ScVL1 [3]: < 5%

B2: L1 Cap N-terminal fragment of pGL1d5 (aa 1-433) (other)
chain: MLRFVTKNSQDKSSDLFSICSDRGTFVAHNRVRTDFKFDNLVFNRVYGVSQKFTLVGNPTVCFNEGSSYLEGIAKKYLTLDGGLAIDNVLNELRSTCGIPGNAVASHAYNITSWRWYDNHVALLMNMLRAYHLQVLTEQGQYSAGDIPMYHDGHVKIKLPVTIDDTAGPTQFAWPSDRSTDSYPDWAQFSESFPSIDVPYLDVRPLTVTEVNFVLMMMSKWHRRTNLAIDYEAPQLADKFAYRHALTVQDADEWIEGDRTDDQFRPPSSKVMLSALRKYVNRNRLYNQFYTAAQLLAQIMMKPVPNCAEGYAWLMHDALVNIPKFGSIRGRYPFLLSGDAALIQATALEDWSAIMAKPELVFTYAMQVSVALNTGLYLRRVKKTGFGTTIDDSYEDGAFLQPETFVQAALACCTGQDAPLNGMSDVYVTYPDL
Curing (%) of ScVL1 [3]: < 5%

B3: L1 Cap N-terminal fragment of pGL1d4 (aa 1-435) (other)
chain: MLRFVTKNSQDKSSDLFSICSDRGTFVAHNRVRTDFKFDNLVFNRVYGVSQKFTLVGNPTVCFNEGSSYLEGIAKKYLTLDGGLAIDNVLNELRSTCGIPGNAVASHAYNITSWRWYDNHVALLMNMLRAYHLQVLTEQGQYSAGDIPMYHDGHVKIKLPVTIDDTAGPTQFAWPSDRSTDSYPDWAQFSESFPSIDVPYLDVRPLTVTEVNFVLMMMSKWHRRTNLAIDYEAPQLADKFAYRHALTVQDADEWIEGDRTDDQFRPPSSKVMLSALRKYVNRNRLYNQFYTAAQLLAQIMMKPVPNCAEGYAWLMHDALVNIPKFGSIRGRYPFLLSGDAALIQATALEDWSAIMAKPELVFTYAMQVSVALNTGLYLRRVKKTGFGTTIDDSYEDGAFLQPETFVQAALACCTGQDAPLNGMSDVYVTYPDLLE
Curing (%) of ScVL1 [3]: < 5%

B4: L1 Cap N-terminal fragment of nonsense mutant pGL1m12 (E435O, aa 1-434) (other)
chain: MLRFVTKNSQDKSSDLFSICSDRGTFVAHNRVRTDFKFDNLVFNRVYGVSQKFTLVGNPTVCFNEGSSYLEGIAKKYLTLDGGLAIDNVLNELRSTCGIPGNAVASHAYNITSWRWYDNHVALLMNMLRAYHLQVLTEQGQYSAGDIPMYHDGHVKIKLPVTIDDTAGPTQFAWPSDRSTDSYPDWAQFSESFPSIDVPYLDVRPLTVTEVNFVLMMMSKWHRRTNLAIDYEAPQLADKFAYRHALTVQDADEWIEGDRTDDQFRPPSSKVMLSALRKYVNRNRLYNQFYTAAQLLAQIMMKPVPNCAEGYAWLMHDALVNIPKFGSIRGRYPFLLSGDAALIQATALEDWSAIMAKPELVFTYAMQVSVALNTGLYLRRVKKTGFGTTIDDSYEDGAFLQPETFVQAALACCTGQDAPLNGMSDVYVTYPDLL
Curing (%) of ScVL1 [3]: < 5%

B5: L1 Cap N-terminal fragment of nonsense mutant pGL1m15 (G501O, aa 1-500) (other)
chain: MLRFVTKNSQDKSSDLFSICSDRGTFVAHNRVRTDFKFDNLVFNRVYGVSQKFTLVGNPTVCFNEGSSYLEGIAKKYLTLDGGLAIDNVLNELRSTCGIPGNAVASHAYNITSWRWYDNHVALLMNMLRAYHLQVLTEQGQYSAGDIPMYHDGHVKIKLPVTIDDTAGPTQFAWPSDRSTDSYPDWAQFSESFPSIDVPYLDVRPLTVTEVNFVLMMMSKWHRRTNLAIDYEAPQLADKFAYRHALTVQDADEWIEGDRTDDQFRPPSSKVMLSALRKYVNRNRLYNQFYTAAQLLAQIMMKPVPNCAEGYAWLMHDALVNIPKFGSIRGRYPFLLSGDAALIQATALEDWSAIMAKPELVFTYAMQVSVALNTGLYLRRVKKTGFGTTIDDSYEDGAFLQPETFVQAALACCTGQDAPLNGMSDVYVTYPDLLEFDAVTQVPITVIEPAGYNIVDDHLVVVGVPVACSPYMIFPVAAFDTANPYCGNFVIKAANKYLRK
Curing (%) of ScVL1 [3]: < 5%

Reference: US5831013, “Capsid polypeptides and use to inhibit viral packaging” (The Research Foundation of State University of New York, dated 1998)
